The target of the data set is T1, gulono-γ-lactone oxidase (Rattus norvegicus, UniProt P10867, I85V).
T1 construct: His tag (pET30a fusion); made in house; host or cells: E. coli Rosetta(DE3), pET30a
T1 sequence (P10867 1-440 I85V): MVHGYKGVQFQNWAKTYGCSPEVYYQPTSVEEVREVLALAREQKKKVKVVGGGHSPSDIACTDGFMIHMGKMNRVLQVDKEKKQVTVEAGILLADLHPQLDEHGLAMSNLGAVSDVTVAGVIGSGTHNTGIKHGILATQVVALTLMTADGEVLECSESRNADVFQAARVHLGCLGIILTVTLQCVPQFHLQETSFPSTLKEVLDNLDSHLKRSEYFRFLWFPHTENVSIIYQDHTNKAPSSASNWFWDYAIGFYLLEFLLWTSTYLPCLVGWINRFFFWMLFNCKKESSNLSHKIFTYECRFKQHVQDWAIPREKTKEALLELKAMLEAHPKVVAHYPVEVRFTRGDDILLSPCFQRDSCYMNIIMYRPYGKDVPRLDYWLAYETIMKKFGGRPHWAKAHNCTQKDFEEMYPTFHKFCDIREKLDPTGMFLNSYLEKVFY
In words: GLO assay, ascorbic acid from L-gulono-γ-lactone. The class given is biochemical. The note with it: His-Bind purified from E. coli; 2.5 mM L-gulono-γ-lactone. How it is done: GLO activity was assayed according to the procedure described by Nishikimi (Methods in Enzymology, 62:24-30 (1979)). The assay mixture contained, in 1 mL, 50 mM potassium phosphate buffer, pH 7.5, 2.5 mM L-gulono-γ-lactone, 1 mM EDTA, and enzyme. The reaction was initiated by the addition of either substrate or enzyme, and the mixture was incubated with shaking in air for 15 minutes at 37° C. The reaction was stopped by the addition of 0.1 mL 50% trichloroacetic acid, and the precipitated protein was removed by centrifugation. The product ascorbic acid was detected by the method described in Example 9. Briefly, 0.956 mL 2,2′-dipyridyl reagent was added to 0.15 mL of the supernatant solution, and the reaction mixture was incubated at 25° C. for 15 minutes. After 15 minutes, the sample was centrifuged to remove any precipitate, and the absorbance was read at 525 nm. The 2,2′-dipyridyl reagent contained 0.056 mL ortho-phosphoric acid (85%), 0.75 mL 0.5% 2,2′-dipyridyl (prepared in hot H2O), and 0.15 mL 1% FeCl3 (in H2O). Standards of ascorbic acid (1.0 μg to 10 μg) were run in parallel with the biological samples for a standard curve. One unit is defined as the quantity that catalyzes the formation of 1 nmol of L-ascorbic acid in 1 minute under the conditions described above. Specific activity is expressed as units per mg of protein ([…]/min/mg).

B1: GLO: gulono-γ-lactone oxidase, rat glo expressed from pET30a in E. coli Rosetta(DE3), His-Bind purified (protein, UniProt P10867 2-440, looked up)
L-gulonolactone oxidase: VHGYKGVQFQNWAKTYGCSPEVYYQPTSVEEVREVLALAREQKKKVKVVGGGHSPSDIACTDGFMIHMGKMNRVLQVDKEKKQITVEAGILLADLHPQLDEHGLAMSNLGAVSDVTVAGVIGSGTHNTGIKHGILATQVVALTLMTADGEVLECSESRNADVFQAARVHLGCLGIILTVTLQCVPQFHLQETSFPSTLKEVLDNLDSHLKRSEYFRFLWFPHTENVSIIYQDHTNKAPSSASNWFWDYAIGFYLLEFLLWTSTYLPCLVGWINRFFFWMLFNCKKESSNLSHKIFTYECRFKQHVQDWAIPREKTKEALLELKAMLEAHPKVVAHYPVEVRFTRGDDILLSPCFQRDSCYMNIIMYRPYGKDVPRLDYWLAYETIMKKFGGRPHWAKAHNCTQKDFEEMYPTFHKFCDIREKLDPTGMFLNSYLEKVFY
modifications: His tag
B1: the “Specific Activity (purified protein)” value worked out at 0.926 nmol/min/mg.
